Data on seven sequences can be found in a protein production outcome set (Wang et al. 2014).

The nature of the data set: label from the status in PepcDB records.
On to “MSTDVSSAENEGGATVRTARVPKYYRLKKHLLDMTRTQTPGTPVPPERTLAAEFDTSRTTVRQALQELVVEGRLERIQGKGTFVAKPKVSQALQLTSYTEDMRAQGLEPTSQLLDIGYITADDRLAGLLDITAGGRVLRIERLRMANGEPMAIETTHLSAKRFPALRRSLVKYTSLYTALAEVYDVHLAEAEETIETSLATPREAGLLGTDVGLPMLMLSRHSQDRTGQPVEWVRSVYRGDRYKFVARLKRPQD”, for which the protein production result is on record as “not failed”.

Consider “MRVFLCGPLASDGLRQRVLGSAPDGVPARLADHALGAAGATVSPMPAPGASVAGLVMELGAEAGARLLHYQTATGHEARTLAVAGAPALVFFAPPEGLEPWDEAAWGALWGPIVVATAGDVMALWPEVPAERIARRYRLMLVQGASRVRAAADPGPARRRHAAQPGDVRIVRRSQPYANFFAVEEYDLSFRSFGGGMSPTLNRAVFISGDAVTVVPYDPVRDRVLLIEQFRPGPLGRGDAQPWLLEPIAGRVDPGETPEAAARREAVEEAGLDLGALLPVASYYPTPAAKAEYLYSYVALAQLDDGIEGIFGMEGEGEDIRGHLMSFDEMMALIRSGEICNGPLLLTALWLDRERPRLRGE”, for which the protein production entry is “failed”.

Turning to “MPDVLPHPDGPDSTARPWCSVVIPVLHEAVTIAAQVAHVRHVAARCGMEVEVVVADGAKERDTLAALPEGCCTAVASCPGRARQMNAGAGKARGETLLFLHADTHLPPEAFTLLRRARQAGIRAGAFRLGIAATGLWFRLVERLACWRNRLVRTPYGDQAQFFDAALFRAVGGYPDQPLMEDVEVMRRLRKAGERIVILPGRVETSARRWFVEGPLRCTLRNLCLRLLYALGVPAHALSRWYRAHKERP”, the protein production result is listed as “failed”.

“MDHTSPTYMLANLTHLHSEQLLQGLNLLRQHHELCDIILRVGDVKIHAHKVVLASVSPYFKAMFTGNLSEKENSEVEFQCIDETALQAIVEYAYTGTVFISQDTVESLLPAANLLQIKLVLKECCAFLESQLDPGNCIGISRFAETYGCRDLYLAATKYICQNFEAVCQTEEFFELTHADLDEIVSNDCLNVATEETVFYALESWIKYDVQERQKYLAQLLNSVRLPLLSVKFLTRLYEANHLIRDDRTCKHLLNEALKYHFMPEHRLSHQTVLMTRPRCAPKVLCAVGGKSGLFACLDSVEMYFPQNDSWIGLAPLNIPRYEFGICVLDQKVYVIGGIATNVRPGVTIRKHENSVECWNPDTNTWTSLERMNESRSTLGVVVLAGELYALGGYDGQSYLQSVEKYIPKIRKWQPVAPMTTTRSCFAAAVLDGMIYAIGGYGPAHMNSVERYDPSKDSWEMVASMADKRIHFGVGVMLGFIFVVGGHNGVSHLSSIERYDPHQNQWTVCRPMKEPRTGVGAAVIDNYLYVVGGHSGSSYLNTVQKYDPISDTWLDSAGMIYCRCNFGLTAL”: the protein production entry is “failed”.

As for “MAAVGSGGYARNDAGEKLPSVMAGVPARRGQSSPPPAPPICLRRRTRLSTASEETVQNRVSLEKVLGITAQNSSGLTCDPGTGHVAYLAGCVVVILDPKENKQQHIFNTARKSLSALAFSPDGKYIVTGENGHRPAVRIWDVEEKNQVAEMLGHKYGVACVAFSPNMKHIVSMGYQHDMVLNVWDWKKDIVVASNKVSCRVIALSFSEDSSYFVTVGNRHVRFWFLEVSTETKVTSTVPLVGRSGILGELHNNIFCGVACGRGRMAGSTFCVSYSGLLCQFNEKRVLEKWINLKVSLSSCLCVSQELIFCGCTDGIVRIFQAHSLHYLANLPKPHYLGVDVAQGLEPSFLFHRKAEAVYPDTVALTFDPIHQWLSCVYKDHSIYIWDVKDINRVGKVWSELFHSSYVWNVEVYPEFEDQRACLPSGSFLTCSSDNTIRFWNLDSSPDSHWQKNIFSNLAPALQMCGRGHSRQPNTPSPGEIAS”, the protein production entry is “failed”.

With “TEETAKVVPMAVITPAINQLTDQEKAEGWALLFDGKTTKGWRGAHKDAFPDHGWMVKDGELIVQKSDGSESTNGGDIVTEGEYSAFEFSVDFKITEGANSGIKYFVTEQEKQKGSAYGLEFQLLDDAKHPDAKLYTTFPGSRTLGSLYDLKKSENIHFNGVGEWNTAVVKVFPNNHVEHWLNGVKVLEYERGSKEFRDLVKGSKYADPSYNAGGAFGEAPKGHILLQDHGDEVAFRNIKVKELK”, the protein production result is listed as “not failed”.

With “SMLSRAKPAVGGESPHTDKRKKKGRKIPKLEDLLSQRDFTGAITLLEFKRHVGEQEDDTNLWIGYCAFHLGDYKRALEEYENATKEENCNPEVWVNLACTYFFLGMYKQAEAAGFKAPKSRLQNRLLFHLAHKFNDEKKLMNFHQNLQDIKEDQLSLASNSEIHLPLPPECWD”, the protein production entry was “failed”.
